Source: patent publication US11325945B2, “Peptide based PCSK9 vaccine” (CADILA HEALTHCARE LIMITED, priority 2017, dated 2022)
Non-standard residues stand in square brackets, D forms with d. Primed or numbered codes have the meaning given here. No end group written: not given here. 2‑aminophenyl pentanoic acid = 2-Aminophenyl pentanoic acid; Hyp = O=C(O)[C@@H]1C[C@@H](O)CN1; NMeI = CC[C@H](C)[C@H](NC)C(=O)O; hArg = N=C(N)NCCCC[C@H](N)C(=O)O; Cit = NC(=O)NCCC[C@H](N)C(=O)O; Nle = CCCC[C@H](N)C(=O)O; Aib = CC(C)(N)C(=O)O

Experiments:
recombinant human PCSK9 = molecular target: T1, recombinant human PCSK9 (Homo sapiens, UniProt Q8NBP7); assay: Affinity of new peptides for recombinant human PCSK9 by surface plasmon resonance (Biacore T200); type: binding; settings: SPR, 25° C.
T1 construct: His; purchased BPS Biosciences
Method: (§1) Affinity parameters of new peptides for recombinant human PCSK9 were analyzed by surface plasmon resonance (SPR), using a Biacore instrument (Biacore T200, GE Healthcare). SPR experiments were performed at 25° C. with a BIACORE T200 apparatus (GE Healthcare, Uppsala, Sweden).
(§2) Purified recombinant human PCSK9 (His-tagged, BPS Biosciences) diluted to 100-150 μg/mL in 10 mM acetate buffer, pH 5.0, was immobilized on one of the four flow cells of a Series S Sensor Chip CMS to a level of approximately 6000 to 8000 RU (resonance units) by the use of amine-coupling chemistry. The surface was blocked with 1M ethanolamine, pH 8.5. Whereas one flow cell was immobilized as blank for reference subtraction (no PCSK9). 10 mM Hepes (pH 7.4) with 150 mM NaCl was used as running buffer. The rest two flow cells were saved for future use.
(§3) 100× Stock solutions of NCE (new peptides) were made in 100% DMSO and were diluted to range of concentrations in 10 mM Hepes, pH7.4+150 mM NaCl so that the final conc of DMSO is kept at 1%. Binding/Kinetics studies were conducted by passing various concentrations of NCEs over blank as well as ligand (protein) immobilized surface. Each cycle consisted of a 60 s or 120 s analyte (diluted small molecule drug) injection at flow rate with between 5 to 30 μL/min (the association phase), followed by a dissociation phase with between 60 to 180 s. If required, regeneration was done using a 30 s (15 μL) injection of 10 mM glycine/HCl (pH 1.5) and 20 s or 30 s (10 or 15 μL) injection of 10 mM NaOH. The data were analyzed using the Biacore T200 Evaluation software. All the curves were reference-subtracted. Baselines were adjusted to zero for all curves and data were presented as binding RU (Average of 5 s window) 5 s before end of sample injection.
For KD (equilibrium dissociation constant) determinations analyte curves were subtracted from buffer blank and modeled assuming a simple 1:1 interaction to generate the kinetic data.

PCSK9 = assay: Immunogenicity study in BALB/c mice: anti-PCSK-9 ELISA antibody titers in serum; type: in vivo, mouse; settings: peptide formulations, in words
Method: (§4) Female BALB/c mice of 12-15 weeks of age issued from animal house and kept for […]. Mice had access to food and water ad libitum and were kept under a 12 hrs light/dark cycle. On Day-0 (pre-treatment) animals bled and serum was harvested for total cholesterol measurement. Animals were randomized and grouped to various treatments based on their total cholesterol and body weights. On next day of Day-0 (pre-treatment) blood collection animals were immunised with 0.3 ml of vaccine formulations as mentioned Table No. 1 by subcutaneous or intramuscular route. Next booster injection was given on 2 weeks and 4 weeks after first injection and animals were bled for immunogenicity measurement on two weeks thereafter till week 7 and then every four week till 32 week, detailed schedule of blood collection was Day-0 (pre-treatment) from there 5th, 7th, 20th, 24th, 28th, 32nd, 45th and 57th week after first vaccine administration. Serum was separated and serum total cholesterol was measured and immunogenicity or antibody confirmation was done using ELISA for PCSK9 antibody titer, binding of serum antibodies with human PCSK9 using Surface plasmon resonance (SPR) assay and LDLR-PCSK9 interaction inhibition assay.
At specific intervals of time (15 days post immunization with each booster), serum samples were collected from all groups of mice. 96-well ELISA plates (#442402) were pre-coated with PCSK-9 protein 50 ng/well and plate incubated overnight at 2-8° C. Next day, wells were washed to remove unbound protein and blocked in 2% skimmed milk-PB ST for 2 hours, and washed with PBST. Sera samples were diluted 1:20 with 0.2% skimmed milk made in PBST. Appropriate volume of samples and standards was added to each well, and incubated for 1 hour at 37° C. Anti-mouse IgG secondary HRP-labeled antibody was added to each well and incubated at 37° C. for 1 hour, then washed. […] Plates were read at 492 nm on a Spectramax microplate reader. […] By using the negative control value, cut-off value was calculated and the corrected OD's above the cut off value were treated as […]. […]

LDLR-PCSK9 interaction = LDLR-PCSK9 interaction inhibition assay with serum from vaccine treated animals (PCSK9[Biotinylated]-LDLR Binding Assay Kit); type: biochemical; settings: peptide formulations, week 5, in words
Method: as §4
Inhibition of LDLR-PCSK9 interaction by antibody (Ab) in serum from vaccine treated animal were assayed using BPS Bioscience in-vitro PCSK9[Biotinylated]-LDLR Binding Assay Kit (BPS Bioscience, San Diego, Calif., USA) with minor modifications. First, LDLR ectodomain is coated on a 96-well plate and plate was incubated overnight. Next, PCSK9-biotin was diluted in 1×PCSK9 assay buffer to obtain 2.5 ng/μl (50 ng/20 μl) concentration and this master mix, test inhibitor (serum samples from animal studies), inhibitor buffer was added to LDL-R coated plate and incubated at room temperature for 2 hours. Finally, the plate is treated with streptavidin-HRP followed by addition of an HRP substrate to produce chemiluminescence, which was then measured using a chemiluminescence reader according to the manufacturer's instructions. […]

human PCSK9 = assay: Serum antibody detection by affinity determination against human PCSK9 using SPR assay; type: binding
Method: as §1, §2
as §3, with “Baselines were adjusted to zero for all curves and data were presented as binding RU (Average of 5 s window) 5 s before end of sample injection.” left out
Female BALB/c mice of 12-15 weeks of age issued from animal house and kept for 2-3 acclimatization. […] Serum was separated and serum total cholesterol was measured and immunogenicity or antibody confirmation was done using ELISA for PCSK9 antibody titer, binding of serum antibodies with human PCSK9 using Surface plasmon resonance (SPR) assay and LDLR-PCSK9 interaction inhibition assay.

T1 sequence (Q8NBP7 153-692): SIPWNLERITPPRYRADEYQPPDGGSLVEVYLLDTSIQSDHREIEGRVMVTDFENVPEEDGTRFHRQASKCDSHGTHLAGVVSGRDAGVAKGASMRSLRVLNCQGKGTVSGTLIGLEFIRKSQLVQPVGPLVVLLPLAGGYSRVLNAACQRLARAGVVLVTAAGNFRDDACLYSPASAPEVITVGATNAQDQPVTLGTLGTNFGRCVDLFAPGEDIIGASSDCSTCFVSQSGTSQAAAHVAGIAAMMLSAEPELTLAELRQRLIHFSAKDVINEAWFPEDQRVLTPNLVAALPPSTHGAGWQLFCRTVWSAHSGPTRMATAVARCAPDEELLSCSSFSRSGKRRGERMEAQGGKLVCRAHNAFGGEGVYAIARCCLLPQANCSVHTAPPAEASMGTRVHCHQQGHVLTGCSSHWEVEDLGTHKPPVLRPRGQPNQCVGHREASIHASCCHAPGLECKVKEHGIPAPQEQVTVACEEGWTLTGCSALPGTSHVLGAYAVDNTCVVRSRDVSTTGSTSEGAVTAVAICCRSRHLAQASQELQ

Substance | Binding - Response Unit(RU) (recombinant human PCSK9; peptide 50 μM) | Binding - Response Unit(RU) (recombinant human PCSK9; peptide 100 μM) | antibody titers against human PCSK9 as compared to Seq.ID.No.1 (PCSK9) | LDLR-PCSK9 interaction inhibition compared with Seq. ID No.1 (LDLR-PCSK9 interaction) | antibody response (SPR) as compared to Seq.ID.No. 1 (human PCSK9; week 5, in words) | antibody response (SPR) as compared to Seq.ID.No. 1 (human PCSK9; week-57, in words)
10 (SIPWN[Aib]ERITPC) [compound 10] | 3.00 RU | 7.50 RU |  |  |  | 
8 (SI[Hyp]WNLERITPC) [compound 8] | 5.70 RU | 13.25 RU |  |  |  | 
SIPWNLE-Cit-ITPC (SIPWNLE[Cit]ITPC) [Seq. ID. No. 12] |  |  | higher | significantly higher | significantly higher antibody response | significantly higher antibody response
13 (SIPWNLERI[Aib]PC) [compound 13] | 9.75 RU | 37.35 RU |  |  |  | 
14 ([Aib]IPWNLERITPC) [compound 14] | 7.10 RU | 15.00 RU |  |  |  | 
6 (SIPWNLE[hArg]ITPC) [compound 6] | 6.55 RU | 17.50 RU |  |  |  | 
18 (SIP[2‑aminophenyl pentanoic acid]NLERITPC) [compound 18] | 10.20 RU | 17.85 RU |  |  |  | 
7 (SIPWN[Nle]ERITPC) [compound 7] | 6.65 RU | 16.00 RU |  |  |  | 
1 (SIPWNLERITPC; PCSK9) [compound 1] | 7.4 RU |  |  |  |  | 
19 (SIP[(S)‑2‑amino‑3‑(2′-ethyl-4′-methoxy-(1,1′-biphenyl)-4-yl)propanoic acid]NLERITPC) [compound 19] | 35.15 RU | 85.90 RU |  |  |  | 
4 (SIPWNLER[Nle]TPC) [compound 4] | 13.05 RU | 30.00 RU |  |  |  | 
12 (SIPWNLE[Cit]ITPC) [compound 12] | 3.10 RU | 6.70 RU |  |  |  | 
15 (S[NMeI]IPWNLERITPC) [compound 15] | 11.45 RU | 29.85 RU |  |  |  | 
5 (SIPWNLER[Aib]TPC) [compound 5] | 2.30 RU | 7.10 RU |  |  |  | 
SI-Hyp-WNLERITPC (SI[Hyp]WNLERITPC) [Seq. ID. No. 8] |  |  | higher | significantly higher | significantly higher antibody response | 
SIPWN-Nle-ERITPC (SIPWN[Nle]ERITPC) [Seq. ID. No. 7] |  |  | higher | significantly higher |  | 
